The supplement of paper PMC9170038

Test system: K4 kissing-loop RNA reporter
Assay: apparent KD of K4 kissing-loop reporter; higher = weaker reporter binding
Conditions: Eterna round: R107
Description: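 RNA-MaP round R107: designed RNA switches with theophylline, tryptophan, arginine or FMN aptamers are transcribed on-chip within common flanks. They are titrated with a labelled K4 kissing-loop RNA reporter in RNA-MaP buffer (100 mM Tris pH 7.5, 80 mM KCl, 4 mM MgCl2), without ligand or with the indicated ligand. Median apparent KD per design.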

[1] = input ligand: theophylline 20 uM
[2] = input ligand: tryptophan 2.4 mM
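Further: bound reporter read as fluorescence of individual clusters on recovered sequencing chips by microscopy, with normalized cluster intensities fitted with a binding model.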

Row | Sequence | apparent KD of K4 kissing-loop reporter (input ligand: FMN 200 uM) [nM] | apparent KD of K4 kissing-loop reporter (input ligand: arginine 13.2 mM) [nM] | apparent KD of K4 kissing-loop reporter (input ligand: none) [nM] | apparent KD of K4 kissing-loop reporter [1] [nM] | apparent KD of K4 kissing-loop reporter [2] [nM]
1 | ACCACCAGCCGCACGAUACACGGGCAUUACCGAGGACCGGUACGGCCGCCACUCGCCCGCACGCUGGAUCGAGUGAUGUUCGAUC [theeternabot_sameState_KL_Trp_A_15] | 358 | 334 | 384 | 371 | 326
2 | AAAUAUUCGAGUGAUGUUCGAUAAAUUUCAGAGGAUAUGCUUAAAAGCAGAAGGCUGUAUUUCUAUUUGUUAUUAAAUUUUAUAA [JR_ExcFMNA_Sub002] | 90.3 | 107 | 91.1 | 111 | 76.9
3 | UAACGGCAACAAGGAUAUCCCAGUGAUGUUGGGAGAUAUUGACUAAGGAGACAUGAUAGGCAUAAUGGAGAAGGUGUGUUGGGAG [theeternabot_exclusion_KL_FMN_B_19] | 159 | 116 | 142 | 131 | 138
4 | CGGAUGUAGUGAUGUUAUAUUAGAUGUAGACGAGGACCGGUACGGCCGCCACUCGUGACGGCUGCUAGCGCGUUGCGAGGUUUGC [ExTryptoA.Cn] | 716 | 488 | 758 | 518 | 543
5 | ACGUGCACGAGUGAUGUUUGAAAAUCUGAAGGAGCGGGCGAAAGCCCAGGUAGGUCGCAGAAUAGCACGAGCCACGAAAGUGGCA | 202 | 272 | 319 | 142 | 191
6 | AUUUUUUUGUCAGGAUAUUAGUAUGCUUUUGGUUUGUUAGUGAUGUUGAUAUUUUGUUUAUGUAUUUAAGAAGGGAUUUAGCGGU [etvuumullin] | 409 | 276 | 362 | 371 | 255
7 | UUAGUCUAGAGAAGGAGCGCAGUGAUGUUGCGGUAUGUGAAAAUAUGUAUAUAAUAAUAAAUGCAGGUAGGUCGCUCUAGACAUU [AK2 Exc Arginine B] | 68.4 | 89.7 | 64.9 | 85.7 | 54.3
8 | CUAUGAGUGAUGUUCGUAGGUUGGGCUUGGCAGGAUAUGGGAUCUUCCAGAAGGGCCGAUUCCGGCGAGUGAUGUUCGUUGGUCU [Exclusion FMN A GF30] | 41.7 | 42.1 | 50.1 | 43.2 | 43.9
9 | CGAUGUUCCUGGGAUACCAGUCGGAGUCUCAGAGCUCGGAGUGAUGUUCUGGGAUGUUUCGGCCCUUGGCAGCUCUGGGACUCCU [#2 Exclusion - Theophylline B Attempt #22 (HarryS)] | 881 | 630 | 819 | 840 | 662
10 | AAUAUCUAGUAUAUAUUUAAUAAAACAGAUACCAGUGAUAAUAGACACCCUUGGCAGCUGGACGAGUGAUGUUCGUAUAUAUUAA [JR_SSTheophyA_Sub007] | 90.7 | 153 | 108 | 184 | 66.8
11 | GCAGUCCGGACGGCCGCCACUAUCCGUAAAGUGAUGUUUUACGAACAAUCGAUUGCAUAUCAGAAUAGGACCGGGUCCGUCGACC [theeternabot_sameState_KL_Trp_B_15] | 228 | 185 | 212 | 170 | 201
12 | GAACAUAGUAAAGGAUAUUCCUGCCUCGCGCGAUUGAUUAGUGAUGUUGACGAUAUCGCUUUGAGGGAAGAAGGUUAACAAGUCA [theeternabot_exclusion_KL_FMN_B_4] | 761 | 659 | 678 | 478 | 596
13 | GUACGCUCUCGAGUGAUGUUCGGUAAUAGAGAGGAUAUCGCUUUUGCGAGAAGGCUCUGAAUGAGGAAACUCGUUCUGAGUGUAC [FMN A 19] | 436 | 362 | 389 | 358 | 419
14 | AGUACAAUGGCGGCCGCCACUCAAUGGGCGACCGAAAGGUCGCAUCACUCAGUGAUGUUGAGUGAGAGGACCGGGCCUUUGUACA [Omei KL Tryp B SS B v8] | 733 | 497 | 611 | 595 | 270
15 | CGCAGUGAUGUUGCUAUUAUUCUUGAUUAACGAGGACCGGUACGGCCGCCACUCGGUUUCUAUCUGAUCCAGCGUUUUGUUGAGU [#23 K4 Tryptophan A Exclusion] | 474 | 562 | 638 | 620 | 335
16 | GGUAGCAUGGCGGCCGCCACUGUCUACUGAGGCGGAGUGAUGUUCCGGUUUAAAUAACAAGUUCACAGGACCGGGCCAUGCUACC | 382 | 400 | 462 | 471 | 141
17 | CUAUAGACCCUUCGGAUAGUGAUGUUGUCACGAGGACCGGUACGGCCGCCACUCGCUGCCACCAUACCGCUUCACGGAACGAGCA [theeternabot_exclusion_KL_Trp_A_7] | 483 | 429 | 503 | 599 | 169
18 | CUAUAAGUGCCGAGUGAUGUUCGGCCAAUACGAGGACCGGUACGGCCGCCACUCGGUCAGUCGGUGCCCACCGGGCAUGGCUGAC [Ortima] | 186 | 237 | 205 | 213 | 113
19 | AGAGUGAUGUUUUUUUGAAGUGAGUAAUGUCGAGGACCGGUACGGCCGCCACUCGAGUGAUGUUAGUGAUGUUGAUGUAGUGAUG [?lmullin] | 138 | 61.3 | 72.4 | 137 | 127
20 | ACGUGCACCAGUGAUGUUGGAAAAUAUGAAGGAGCGGGAGAAAGCCCAGGUAGGUCGCAUAAUAGCACGAGCCACGAAAGUGGCA | 233 | 145 | 178 | 141 | 131
21 | CAGGCGACUAUCGAUACCAGAUGAUAUCGACUACUUGAGUGAUGUUCGAUUAAAGGCAUUAUCCCUUGGCAGCGACUGGACACAU [theeternabot_sameState_KL_Theo_B_24] | 706 | 505 | 667 | 659 | 414

Row | Sequence | apparent KD of K4 kissing-loop reporter (input ligand: FMN 200 uM) [nM] | apparent KD of K4 kissing-loop reporter (input ligand: arginine 13.2 mM) [nM] | apparent KD of K4 kissing-loop reporter (input ligand: none) [nM] | apparent KD of K4 kissing-loop reporter [1] [nM] | apparent KD of K4 kissing-loop reporter [2] [nM]
22 | AGGAUCCGUCGACAAAAGUCGACAUAAUCCAAGGAUAUGACGAAAGUCAGAAGGUGGACAUAAGUCCAGUGAUGUUGGAGGAUCC [FmnA 16 #SwitchBubble #K4Late] | 766 | 283 | 427 | 557 | 351
23 | AGACUACUGACAGGAUAUAACAUCCUAGUCGUAUACCGAAAGGUAUACGAUUCCCUUCUAGUGAUGUUAGAAGGGUCGGUAGUCA [Omei KL FMN B Exc B v13] | 151 | 93.4 | 103 | 98.9 | 101
24 | AGAUGGAAUAGAAGGAGCGGCGCCAGUGAUGUUGGAUGCCGCGGGUGAAUCAUGUCAUAGUGCCAGGUAGGUCGCUAUUUCAGCU [Beinveve] | 104 | 98.1 | 96.6 | 103 | 90.8
25 | CGCGGCCCGCCGGAUACCAGUGACCCGCGGGAAACCGCGGGCCCAGAGUGAUGUUCGGGACACCCUUGGCAGCCGCCUGGGCGUG [#2 Same State - Theophylline B Attempt #1 (HarryS)] | 567 | 325 | 620 | 1000 | 424
26 | AACUGUCAAGGACAACAUUACUGAAGUGAUACCAGCAUCGAAAGAUGCCCUUGGCAGCACUGACUUGCAGUGAUGUUGCAAGUAA [BrourdMod 7 - Jieux - Exclusion - Theophylline A] | 211 | 165 | 194 | 200 | 194
27 | AUGCUUUUAAUAACACUAUAUACAGCUGAAGGAGCGACAAUAAAGUCAGGUAGGUCGCAGAAUAGAUGAGUGAUGUUCAUUUUUA [#05 K4 Arginine A Exclusion] | 92.8 | 178 | 118 | 166 | 76.9
28 | UUAGUCUAGAGAAGGAGCGAGUGAUGUUUGCUAAGCUAUAUAAUAAAAUAUAGCAAAUUUACUCAGGUAGGUCGCUCUAGACAUU [AK3 Exc Arginine B] | 153 | 122 | 98 | 149 | 74.2
29 | GUAUACAUAGAUCACCUUGUAGUGAUGUUGCGAGGACCGGUACGGCCGCCACUCGAAGUACGAAAGUACAAAGAUCUAUGUAUAC [Exclusion Trypto A - 1] | 251 | 131 | 258 | 136 | 45.9
30 | GAUUCAGUGAUGUUGGAAGGCGAGCGGGAUACCAGCGGAGACUCACGCCCUUGGCAGCCCACAUAUCCCAGGUAGAUAAUAGAUC [Same State - Theophylline A (Freestyle 7)] | 201 | 123 | 178 | 160 | 180
31 | UCUCCAGUGAUGUUGGAGACGGAUGAGGAAGGAGCGGGCACGUGCCCAGGUAGGUCGCCUCGAAAGCCCUGUAGCAUCGCGAAAC [Disoribe] | 281 | 188 | 203 | 193 | 149
32 | UGAUACCAGACGGCCGCCACUCCCGCAGGUCAAAGACCUGCGAAGAAGGUUCUUCAGUGAUGUUGGAGGACCGGGUCUGGUAUCU [FiskerMod 22 - Jieux - Exclusion - Tryptophan B] | 217 | 168 | 207 | 213 | 369
33 | UCGCGUAAUGGAAGGAGCGGUGCCAGUGAUGUUGGAUACUGCGUGUAUUAGGUCGGAGCGCACCAGGUAGGUCGCCAUUUGGUGG [Tigedies] | 328 | 276 | 236 | 271 | 369
34 | UGAUAGGACAGAAGGAGCGGAAGUGAUGUUUCCAAAUGGAAUAAGGUGUCAAAGACACCCUUCCAGGUAGGUCGCUGUCCUAUCU [ArgBX 15 #Palindromic #SwitchBubble #StaticStem] | 147 | 175 | 140 | 161 | 128
35 | AGAUUCGACACGGCCGCCACUUCCAGUGGUCGGUGUCAUGGUGCACAUGAGUGAUGUUCAUGUGGAAGGACCGGGUGUUGAGUCU [KL-XTryp-B3 #analogue] | 111 | 91.4 | 103 | 108 | 165
36 | AACCUUGUAGUGAUGUUGCAAGGCGCUGAUACCAGUCACAGCCACGACCCUUGGCAGCAGUGGCGUUCAUGAUAAAAUAGAUUAA [theeternabot_sameState_KL_Theo_A_49] | 42 | 41.5 | 41.4 | 37 | 39.9
37 | CCAUCGCUAUUCGAUACCAGUCAUUUUUUAUUUUAUUUUUUUUUUGGAGUGAUGUUCCAAGACCCUUGGCAGCGAAUAGUGAUGG [whbob_SS_Theo_B_th78] | 119 | 130 | 113 | 139 | 106
38 | AAAUAAAUCACGGCCGCCACUGUAAGUUGAAGUGAUGUUUCAAGAUAUAGUAUGUUUUAUAAUAUCAGGACCGGGUGAUUUUUAA [JR_SSTryptoB_Sub021] | 147 | 103 | 133 | 115 | 119
39 | GCUAUGGUAGGAAGGAGCGCGGACGAAAUUUAUCGAGUGAUGUUCGAAUAAUUAAAUAAAACGCAGGUAGGUCGCCUACUAUAGC [Arginine B K4 26] | 101 | 97.5 | 97.5 | 95.5 | 75.7
40 | UUUAUAUUCUGAGGAUAUCGUAUUAAUGAAGUGAUGUUUCAGUAUAUUCUAAUUAUAUAUAAUUUUCGAGAAGGCAGUAUUAUUU [JR_Nu3_SSFMNB_Sub028] | 187 | 243 | 246 | 320 | 196
41 | CUUGGAAGGACGGCCGCCACUCGACAGUGAUGUUGUCCGAGUGGGUAGCGCAGUGAUGUUGUGUCGAGGACCGGGUCCUAGGAAU [Exclusion Tryptophan B GF 27] | 185 | 149 | 170 | 155 | 137
42 | UAGGCGGGAGAAGGAUAUCUGUGAAACCUGCUGCCCAAUAAGUGAUGUUUAUAAAGGAAGCGUCAUAGAGAAGGUCUAACAAGUA [theeternabot_sameState_KL_FMN_B_1] | 512 | 582 | 714 | 642 | 814
